Data on five molecules can be found in patent US20250019454A1 (BIOCYTOGEN PHARMACEUTICALS BEIJING, published 2025).

For assay [1], the target named is T1, His-tagged human TNFR1 (Human TNFR1/CD120a/TNFRSF1A Protein, His Tag, Acrobiosystems Cat #: TN1-5222) (human, UniProt P19438 30-211).
T1 construct: Bought protein; also called hTNFR1-His; hTNFR 1-His; not shown: His tag
T1 sequence (looked up): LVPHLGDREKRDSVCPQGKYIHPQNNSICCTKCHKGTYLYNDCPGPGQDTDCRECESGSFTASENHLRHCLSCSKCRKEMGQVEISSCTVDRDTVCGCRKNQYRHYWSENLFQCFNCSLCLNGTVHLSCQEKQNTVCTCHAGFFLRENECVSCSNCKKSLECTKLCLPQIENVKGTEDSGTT
Description: SPR Biacore 8K, antibody captured on Protein A chip. How it is done:
The binding affinity of the anti-TNFR2 antibodies to human TNFR2 and TNFR1 (Tumor necrosis factor receptor 1) were measured using surface plasmon resonance (SPR) using Biacore (Biacore, INC, Piscataway NJ) 8K biosensor equipped with pre-immobilized Protein A sensor chips.
Purified anti-TNFR2 antibodies were diluted to 1 μg/mL and then injected into the Biacore 8K biosensor at 10 μL/min for about 50 seconds to achieve a desired protein density (e.g., about 50 response units (RU)). […] Dissociation was monitored for 600 seconds. The chip was regenerated after the last injection of each titration with Glycine (pH 2.0, 30 μL/min for 30 seconds).

Assay [2] deals with T2, ΔCRD3-TNFR2 protein (with CRD3 deletion), on CHO-S cells (human, UniProt P20333 23-461).
T2 construct: also called CHO-SΔCRD3-TNFR2; TNFR2 lacking CRD3
T2 sequence: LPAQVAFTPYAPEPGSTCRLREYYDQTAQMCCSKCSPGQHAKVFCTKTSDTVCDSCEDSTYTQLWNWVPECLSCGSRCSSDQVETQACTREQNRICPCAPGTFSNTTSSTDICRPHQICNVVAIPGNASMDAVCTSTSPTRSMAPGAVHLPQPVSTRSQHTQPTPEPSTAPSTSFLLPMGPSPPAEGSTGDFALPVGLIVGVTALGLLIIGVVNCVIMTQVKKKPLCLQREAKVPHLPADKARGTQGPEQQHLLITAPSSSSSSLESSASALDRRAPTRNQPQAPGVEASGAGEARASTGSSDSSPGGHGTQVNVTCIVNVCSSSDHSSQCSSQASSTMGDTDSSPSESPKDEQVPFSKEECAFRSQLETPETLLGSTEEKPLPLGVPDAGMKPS
Briefly: FACS on CHO-S cells with ΔCRD3-TNFR2. The source says: (§1) TNFR2 has four cysteine rich domains (CRD). In another experiment, FACS was used to detect the binding of anti-hTNFR2 antibodies to TNFR2 proteins with different structural domains. Secondary antibody (Alexa Fluor® 647 AffiniPure F(ab′) 2 Fragment Goat Anti-Human IgG, Fcγ fragment specific, Jackson ImmunoResearch Laboratories, Inc., Cat #: 151524) was used. The fluorescence-labeled secondary antibody can attach to the Fc region of the anti-hTNFR2 antibodies so that the anti-hTNFR2 antibodies that are bound to the ΔCRD cells can be detected by FACS. Specifically, ΔCRD1-TNFR2 protein (with CRD1 deleteion), ΔCRD2-TNFR2 protein (with CRD2 deleteion), ΔCRD3-TNFR2 protein (with CRD3 deleteion) or ΔCRD4-TNFR2 protein (with CRD4 deleteion) were expressed in CHO-S cells respectively, and then the binding between the cells and different anti-hTNFR2 antibodies was detected.

Assay [3] deals with T3, human TNFR2 (expressed on cells) (human, UniProt P20333 23-461).
T3 sequence: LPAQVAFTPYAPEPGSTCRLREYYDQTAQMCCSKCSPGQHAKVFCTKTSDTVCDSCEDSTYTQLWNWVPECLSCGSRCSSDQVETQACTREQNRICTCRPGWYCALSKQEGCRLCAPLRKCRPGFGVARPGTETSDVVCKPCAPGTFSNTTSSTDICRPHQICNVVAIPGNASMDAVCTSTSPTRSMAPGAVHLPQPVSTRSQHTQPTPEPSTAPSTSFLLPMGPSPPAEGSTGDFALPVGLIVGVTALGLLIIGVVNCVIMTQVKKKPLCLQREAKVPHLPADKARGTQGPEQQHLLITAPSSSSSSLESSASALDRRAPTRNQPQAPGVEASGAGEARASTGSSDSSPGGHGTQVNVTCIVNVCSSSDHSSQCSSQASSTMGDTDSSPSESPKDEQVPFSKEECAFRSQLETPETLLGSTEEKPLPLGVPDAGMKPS
Description: cell-based or functional assay.

The target of assay [4] is T4, ΔCRD4-TNFR2 protein (with CRD4 deletion), on CHO-S cells (human, UniProt P20333 23-461).
T4 construct: also called CHO-SΔCRD4-TNFR2; TNFR2 lacking CRD4
T4 sequence: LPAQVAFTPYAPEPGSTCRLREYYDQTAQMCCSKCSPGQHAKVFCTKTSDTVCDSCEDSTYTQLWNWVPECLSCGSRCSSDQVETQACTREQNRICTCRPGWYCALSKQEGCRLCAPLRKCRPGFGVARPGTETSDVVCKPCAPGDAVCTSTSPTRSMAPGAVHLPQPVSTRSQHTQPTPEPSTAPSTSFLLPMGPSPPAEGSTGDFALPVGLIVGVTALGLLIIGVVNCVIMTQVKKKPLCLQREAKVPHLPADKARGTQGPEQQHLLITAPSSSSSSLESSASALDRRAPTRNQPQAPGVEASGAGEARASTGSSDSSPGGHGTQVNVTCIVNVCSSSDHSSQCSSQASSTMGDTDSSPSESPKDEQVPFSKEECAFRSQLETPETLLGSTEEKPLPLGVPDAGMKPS
Description: FACS on CHO-S cells with ΔCRD4-TNFR2.
Source text: as §1

Where a chain is given by its changes, count along the chain named.

As usually defined, the EC50 (read off the curve) is the concentration that produces a half-maximal response.

B1: BC-1F10-IgG1 (antibody, V domains shown)
VH: QVQLQQWGAGLLKPSETLSLICAVYDGSFSGDYWSWIRQPPGKGLEWIGEINHSGSTNYNPSLKSRVTISVDTSKNQFSLKLSSVTAADTAVYYCARGHWNYDYYYGMDVWGQGTTVTVSS
VL: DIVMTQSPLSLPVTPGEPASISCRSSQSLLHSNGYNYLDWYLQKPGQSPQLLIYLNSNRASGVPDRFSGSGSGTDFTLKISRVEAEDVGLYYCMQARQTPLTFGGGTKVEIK
notes: Human VH/VL joined to the human IgG1 subtype
With B1, in assay [1], the binding result was “no binding (tested: up to 200 nM analyte)”.

B2: BC-1A8-IgG1 (antibody, V domains shown)
VH: QVQLQQSGPGLVKPSQTLSLTCAISGDSVSSNSAAWNWIRQSPSRGLEWLGRTYYRSKWYNDYALSVKSRITINPETSKNQFSLQLNSVTPEDTAVYYCAREDGVGGTKDYFDYWGQGTLVTVSS
VL: DIQMTQSPSSLSASVGDRVTITCQASQDIDNYLNWYQQKPGKAPKLLIYDVSNLEIGVPSRFSGSGSGTDFTFTISSLQPEDIATYYCQQYDNLPLTFGQGTRLEIK
notes: Fully human VH/VL joined to the human IgG1 subtype, kappa light chain (RenMab mice)
On to B2, for which the binding result in assay [2] is reported as “no binding”; in assay [1], “no binding (tested: up to 200 nM analyte)”.

B3: BC-1F4-IgG1 (antibody, V domains shown)
VH: B2 VH with N32D, A34S, A64T, L65V, E76D
VL: B2 VL with D30S, V51A, I56T, S76N, I83F, Y87F, L96I
notes: as for B1
Regarding B3, the binding result is recorded as “no binding” in assay [2] and “no binding (tested: up to 200 nM analyte)” in assay [1].

B4: BC-1B6-IgG1 (antibody, V domains shown)
VH: QVQLVESGGGVVQPGRSLRLSCAASGFTFSNFGMHWVRQAPGKGLEWVAVIWYEGSDKYYADSVKGRFTISRDNSKNTLYLQMNSLRAEDTAVYYCARDSSWGFLLYGMDVWGQGTTVTVSS
VL: DVVMTQSPLSLPVTLGQPASISCRSSRSLEYSDGNTYLNWFQQRPGQSPRRLIYKVSNRDSGVPDRFSGSGSGTAFTLKISGVEAEDVGVYYCMQGTHWPPTFGGGTKVEIK
notes: as for B1
Consider B4, for which the binding result in assay [1] is “no binding (tested: up to 200 nM analyte)”.

B5: BC-1C3-IgG1 (antibody, V domains shown)
VH: QVQLVESGGGVVHPGKSLRLSCAASGFTFNIYGMHWVRQAPGKGLEWVALISYDGNDKYFADSVKGRFTISRDNSKNTLYLQMNSLRAEDTAVYYCAKAVDTAVVTFFDYWGQGTLVTVSS
VL: EIVMTQSPVTLSVSPGERATLSCRASQSVSSNLAWYQQKPGQAPRLLIYSASTRATGIPARFSGSGSGTEFTLTISSLQSEDLAVYYCQQYSNWPFTFGPGTKVDIK
notes: as for B1
As for B5, in assay [3], the “EC50 (read off the curve)” value was approximately 0.4 mg/L. In addition, the binding result in assay [4] was “no binding”; in assay [2], “no binding”; in assay [1], “no binding (tested: up to 200 nM analyte)”.
